# Where a chain is given by its changes, count along the chain named.
# B1: 376_F06 (antibody, V domains shown)
# VH: EVQLLESGGGLVQPGGSLRLSCAASGFTFSSYGMNWVRQAPGKGLEWVSGINYNGGYTGYADSVKGRFTISRDNSKNTLYLQMNSLRAEDTAVYYCARGANWHDTHLDYWGQGTLVTVSS
# VL: DIQMTQSPSSLSASVGDRVTITCRASQSILTYVNWYQQKPGKAPKLVIYAATSRASGVPSRFSGSGSGTDFTLTISSLQPEDFATYYCQQSYETPLTFGGGTKVEIK
# B2: 371_F04 (antibody, V domains shown)
# VH: B1 VH with S30D, G33S, S49A, G55S, T58K, G99S, H106A
# VL: B1 VL with T31S, V33L, V47L, A55H, E93N, T94N
# B3: 372_F08 (antibody, V domains shown)
# VH: B1 VH with S31D, G33S, G50N, G55S, G99S, H106A
# VL: B1 VL with E93D
# B4: 373_G12 (antibody, V domains shown)
# VH: B1 VH with G33S, G50N, G59S, G99S, H106A
# VL: B1 VL with T31S, V33L, V47L, A51T, R54L, E93N, T94S
# B5: 371_F06 (antibody, V domains shown)
# VH: B1 VH with S30D, G33S, S49A, G50N, G59S, G99S, H106A
# VL: B1 VL with L30V, T31S, V33L, A55H, E93N, T94S
# B6: 371_B07 (antibody, V domains shown)
# VH: B1 VH with S30D, G33S, S49A, G59S, G99S, H106A
# VL: B1 VL with V47L, T94L
# B7: 373_H05 (antibody, V domains shown)
# VH: B1 VH with S31D, G33S, S49A, G50N, T58K, G99S, H106A
# VL: B1 VL
# B8: 373_E01 (antibody, V domains shown)
# VH: B1 VH with T58K, G99S, H106A
# VL: B1 VL with L30V, T31S, V47L, A55H, E93N, T94N
# B9: 371_H09 (antibody, V domains shown)
# VH: B1 VH with S30D, G33S, G50N, G59S, G99S, H106A
# VL: B1 VL with R54L, E93D, T94S
# B10: 373_B10 (antibody, V domains shown)
# VH: B1 VH with S30D, G50N, G59S, G99S, H106A
# VL: B1 VL with T31S, V33L, V47L, E93D, T94L
# B11: 373_D10 (antibody, V domains shown)
# VH: B1 VH with S30D, G33S, G50N, G55S, T58K, G99S, H106A
# VL: B1 VL with T31S, V47L, E93D, T94L
# B12: 374_A07 (antibody, V domains shown)
# VH: B1 VH with G33S, G55S, T58K, G99S, H106A
# VL: B1 VL with T31S, V47L, A51V, E93D, T94L
# B13: 373_D01 (antibody, V domains shown)
# VH: B1 VH with S30D, G33S, G55S, T58K, G59S, G99S
# VL: B1 VL with T31S, E93D, T94S
# B14: 373_G10 (antibody, V domains shown)
# VH: B1 VH with S31D, G50N, T58K, G59S, G99S, H106A
# VL: B1 VL with L30V, T31S, V47L, E93D, T94L
# B15: 373_A08 (antibody, V domains shown)
# VH: B1 VH with S30D, G50N, G99S, H106A
# VL: B1 VL with L30V, T31S, V47L, R54L, E93S, T94L
# B16: 373_E05 (antibody, V domains shown)
# VH: B1 VH with S30D, G50N, G59S, G99S, H106A
# VL: B1 VL with T31S, V47L, A51V, E93D, T94L
# B17: 373_B12 (antibody, V domains shown)
# VH: B1 VH with S30D, G50S, G55S, G59S, G99S, H106A
# VL: B1 VL with L30V, T31S, V47L, E93D, T94S
# B18: 372_F06 (antibody, V domains shown)
# VH: B1 VH with S31D, S49A, T58K, G59S, G99S, H106A
# VL: B1 VL with T31S, V47L, R54L
# B19: 371_A12 (antibody, V domains shown)
# VH: B1 VH with S30D, G33S, S49A, G55S, G59S, G99S, H106A
# VL: B1 VL with T31S, R54L, E93D
# B20: 373_A10 (antibody, V domains shown)
# VH: B1 VH with G55S, G59S, G99S, H106A
# VL: B1 VL with T31S, V33L, E93D, T94L
# B21: 374_B12 (antibody, V domains shown)
# VH: B1 VH with S30D, G33S, S49A, G99S
# VL: B1 VL with L30S, T31S, V33L, E93D, T94N
# B22: 374_C03 (antibody, V domains shown)
# VH: B1 VH with S30D, G33S, G55S, G59S, G99S, H106A
# VL: B1 VL with V33L, V47L, E93D, T94S
# B23: 373_C11 (antibody, V domains shown)
# VH: B1 VH with G33S, G55S, G99S, H106A
# VL: B1 VL with A51V
# B24: 371_F01 (antibody, V domains shown)
# VH: B1 VH with G33S, S49A, G99S, H106A
# VL: B1 VL with R54L, E93N, T94N
# B25: 373_E12 (antibody, V domains shown)
# VH: B1 VH with G33S, S49A, G50N, G99S, H106A
# VL: B1 VL with T31S, E93D
# B26: 373_D05 (antibody, V domains shown)
# VH: B1 VH with G33S, G55S, T58K, G99S, H106A
# VL: B1 VL with T31S, V33L, E93D, T94S
# B27: 374_B04 (antibody, V domains shown)
# VH: B1 VH with G33S, G50N, G55S, G99S, H106A
# VL: B1 VL with L30V, T31S, V33L, V47L, A51V, T94S
# B28: 373_E07 (antibody, V domains shown)
# VH: B1 VH with S49A, G50N, G59S, G99S, H106A
# VL: B1 VL with V47L, R54L
# B29: 372_A04 (antibody, V domains shown)
# VH: B1 VH with S30D, G33S, G55S, G59S, G99S, H106A
# VL: B1 VL with V33L
# B30: 373_D04 (antibody, V domains shown)
# VH: B1 VH with S30D, G33S, G55S, T58K, G99S, H106A
# VL: B1 VL with T31S, V33L, V47L, A55H, E93D, T94S
# B31: 371_B06 (antibody, V domains shown)
# VH: B1 VH with S30D, G33S, S49A, T58K, G59S, G99S, H106A
# VL: B1 VL with A55H, E93N, T94L
# B32: 373_C04 (antibody, V domains shown)
# VH: B1 VH with G33S, S49A, G50N, G55S, G99S, H106A
# VL: B1 VL with L30I, T31S, A51V, E93N, T94S
# B33: 374_B06 (antibody, V domains shown)
# VH: B1 VH with S30D, G33S, S49A, G55S, T58K, G99S
# VL: B1 VL with V47L, E93D
# B34: 373_H01 (antibody, V domains shown)
# VH: B1 VH with S30D, G33S, S49A, G50N, G99S, H106A
# VL: B1 VL with T31S, V33L, E93D, T94N
# B35: 374_D08 (antibody, V domains shown)
# VH: B1 VH with S30D, G55S, G99S
# VL: B1 VL with V33L, V47L, A55H, T94S
# B36: 373_B06 (antibody, V domains shown)
# VH: B1 VH with S31D, G33S, S49A, G99S, H106A
# VL: B1 VL with A55H, T94S
# B37: 373_C08 (antibody, V domains shown)
# VH: B1 VH with G33S, S49A, G50N, G59S, G99S, H106A
# VL: B1 VL with L30I, T31S, V33L, V47L, T52S, R54L, A55Q, E93N, T94N
# B38: 372_D02 (antibody, V domains shown)
# VH: B1 VH with N35H, S49A, G99S, H106A
# VL: B1 VL with V33L, E93D, T94N
# B39: 371_D09 (antibody, V domains shown)
# VH: B1 VH with G33S, G50N, G55S, G99S, H106A
# VL: B1 VL with V33L, E93N, T94N
# B40: 372_F03 (antibody, V domains shown)
# VH: B1 VH with S49A, G59S, G99S, H106A
# VL: B1 VL with T31S, V33L, E93D
# B41: 374_C06 (antibody, V domains shown)
# VH: B1 VH with S30D, S31D, G33S, G50S, G55S, T58K, G99S, H106A
# VL: B1 VL with V47L, E93N, T94S
# B42: 371_A08 (antibody, V domains shown)
# VH: B1 VH with N35H, G50S, G59S, G99S, H106A
# VL: B1 VL with T31S, V33L, T94L
# B43: 372_C07 (antibody, V domains shown)
# VH: B1 VH with S31D, G33S, G50N, G55S, G59S, G99S
# VL: B1 VL with T31S, V33L, A55H, Y92D, E93N
# B44: 373_C06 (antibody, V domains shown)
# VH: B1 VH with G33S, S49A, G99S, H106A
# VL: B1 VL with L30V, T31S, E93D
# B45: 371_F08 (antibody, V domains shown)
# VH: B1 VH with S30D, S31D, G33S, G99S, H106A
# VL: B1 VL with L30V, T31S, A55H, T94S
# B46: 372_B04 (antibody, V domains shown)
# VH: B1 VH with S30D, S49A, G50N, G59S, G99S, H106A
# VL: B1 VL with T31S, R54L, E93D, T94S
# B47: 373_B04 (antibody, V domains shown)
# VH: B1 VH with S49A, G55S, T58K, G99S, H106A
# VL: B1 VL with V33L, V47L
# B48: 371_G10 (antibody, V domains shown)
# VH: B1 VH with G33S, T58K, G59S, G99S, H106A
# VL: B1 VL with L30S, T31S, V47L, A55H, Y92D, E93D, T94S
# Target: Human Fc (human)
# Assay: ELISA; negative control
row,optical density [OD],Binder
1,0.284,B1

# Target: Human Fc (human)
# Assay: ELISA, negative control
row,optical density [OD],Binder
1,0.345,B2
2,0.335,B3
3,0.174,B4
4,0.289,B5
5,0.308,B6
6,0.201,B7
7,0.16,B8
8,0.32,B9
9,0.174,B10
10,0.189,B11
11,0.206,B12
12,0.174,B13
13,0.2,B14
14,0.195,B15
15,0.176,B16
16,0.172,B17
17,0.38,B18
18,0.483,B19
19,0.175,B20
20,0.257,B21
21,0.208,B22
22,0.171,B23
23,0.41,B24
24,0.17,B25

row,optical density [OD],Binder
1,0.179,B26
2,0.222,B27
3,0.294,B28
4,0.339,B29
5,0.168,B30
6,0.356,B31
7,0.157,B32
8,0.157,B33
9,0.198,B34
10,0.201,B35
11,0.221,B36
12,0.16,B37
13,0.433,B38
14,0.268,B39
15,0.438,B40
16,0.18,B41
17,0.304,B42
18,0.279,B43
19,0.163,B44
20,0.301,B45
21,0.333,B46
22,0.176,B47
23,0.439,B48

# From patent US20210380703A1
